Source: patent publication US20100279930A1, “HUMAN PANCREATIC POLYPEPTIDE (HPP) ANALOGUES AND THEIR EFFECTS ON FEEDING BEHAVIOUR” (priority 2007, published 2010)

System: Male C57BL/6 mice
Assay: In vivo food intake experiments in mice (half-life in the blood judged from appetite suppression)
Set-up: species or system mouse
Conditions: comparator native human PP; judged from food intake reduction in mice (4-8 h, 0-24 h, 4:1 or 24:1 ratio)
Procedure: In Vivo Food Intake Experiments
Male C57BL/6 mice (20-30 g) were used for all mouse experiments. Mice were individually housed in IVC cages. Animals were randomized by weight and fasted overnight for 16 hrs before intraperitoneal injection at 9 am. All peptide solutions were prepared freshly the morning of the study and injected as 100 ul. Food intake was measured at 1, 2, 3, 4, 6, 8 and 24 hours post injection. The peptide was dosed at 30 nmol/kg, 50 nmol/kg, 100 nmol/kg, 120 nmol/kg, 150 nmol/kg, 300 nmol/kg, 600 nmol/kg or 1000 nmol/kg depending on the activity. In each case, a control of saline and a control of unmodified human Pancreatic Polypeptide was carried out. All statistics are calculated using a one-way ANOVA with Dunnett's post-test or one-way ANOVA with Bonferroni post-test.
A control of saline was used.
FIG. 2 and in the comparative graph of FIG. 3. […] It is hypothesized that that is as a possible result of stronger activity at the receptor and longer activity.
The mouse is a good model for degradation rates in humans, irrespective of the fact that the receptors for PP in mice are different from the human receptor.

B1: 4055860 (peptide)
chain: CAPLEPVYPGDNATPEQMAQYAADLRRYINMLTRPRYCAPLEPVYPGDNATPEQMAQYAADLRRYINMLTRPRY
modifications: synthetic hPP analogue peptide
For B1, the “half-life in the blood compared with native human PP” value was “longer half life”.
